Assay results as given in paper PMC9482650, “Quantitative fragmentomics allow affinity mapping of interactomes” (Nature Communications, 2022).

T1: DFNB31_3, Q9P202
T1 sequence (Q9P202 811-907, limits assumed, looked up): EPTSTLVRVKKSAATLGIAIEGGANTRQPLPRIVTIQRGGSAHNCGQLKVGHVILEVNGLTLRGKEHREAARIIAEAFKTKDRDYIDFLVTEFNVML

T2: DLG3_1, Q92796
T2 sequence (Q92796 125-227, limits assumed, looked up): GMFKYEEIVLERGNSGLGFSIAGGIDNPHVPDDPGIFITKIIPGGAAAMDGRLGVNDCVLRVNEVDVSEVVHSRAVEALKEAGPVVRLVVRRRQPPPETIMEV

T3: GRIP1_4, Q9Y3R0
T3 sequence (Q9Y3R0 467-571, limits assumed, looked up): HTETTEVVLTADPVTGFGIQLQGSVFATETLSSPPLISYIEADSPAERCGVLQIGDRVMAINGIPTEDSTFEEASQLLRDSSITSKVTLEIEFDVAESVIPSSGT

T4: GRIP1_7, Q9Y3R0
T4 sequence (Q9Y3R0 999-1096, limits assumed, looked up): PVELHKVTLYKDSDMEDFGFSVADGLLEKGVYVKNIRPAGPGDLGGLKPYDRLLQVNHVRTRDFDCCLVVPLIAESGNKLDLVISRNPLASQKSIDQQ

T5: LNX2_2, Q8N448
T5 sequence (Q8N448 334-432, limits assumed, looked up): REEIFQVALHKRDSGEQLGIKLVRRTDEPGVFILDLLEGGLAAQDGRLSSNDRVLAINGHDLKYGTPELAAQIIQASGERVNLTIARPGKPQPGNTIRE

T6: LRRC7, Q96NW7
T6 sequence (Q96NW7 1440-1537, limits assumed, looked up): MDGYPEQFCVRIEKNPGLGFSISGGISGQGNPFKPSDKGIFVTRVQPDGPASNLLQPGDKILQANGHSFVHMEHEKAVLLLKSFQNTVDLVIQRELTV

T7: MPDZ_10, O75970
T7 sequence (O75970 1624-1722, limits assumed, looked up): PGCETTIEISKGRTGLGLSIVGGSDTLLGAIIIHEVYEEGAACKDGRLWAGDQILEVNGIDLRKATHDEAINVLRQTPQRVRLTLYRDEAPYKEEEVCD

T8: PARD3B_1, Q8TEW8
T8 sequence (Q8TEW8 196-299, limits assumed, looked up): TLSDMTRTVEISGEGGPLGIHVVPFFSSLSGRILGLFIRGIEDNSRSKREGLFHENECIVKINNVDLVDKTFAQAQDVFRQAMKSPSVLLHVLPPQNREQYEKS

T9: PCLO, Q9Y6V0
T9 sequence (Q9Y6V0 4491-4600, limits assumed, looked up): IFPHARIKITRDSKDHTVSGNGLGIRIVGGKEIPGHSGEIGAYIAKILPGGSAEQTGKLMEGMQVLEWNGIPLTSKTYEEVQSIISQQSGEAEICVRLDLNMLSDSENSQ

T10: SIPA1L2, Q9P2F8
T10 sequence (Q9P2F8 945-1036, limits assumed, looked up): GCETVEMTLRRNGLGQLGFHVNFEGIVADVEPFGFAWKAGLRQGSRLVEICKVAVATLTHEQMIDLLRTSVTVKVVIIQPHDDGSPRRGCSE

T11: TIAM2, Q8IVF5
T11 sequence (Q8IVF5 885-986, limits assumed, looked up): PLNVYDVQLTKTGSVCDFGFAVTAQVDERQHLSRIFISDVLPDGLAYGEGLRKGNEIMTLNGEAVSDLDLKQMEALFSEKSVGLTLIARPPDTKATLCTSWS


Tests used:
Test in all cases: holdup assay
Design in all cases: key: below the threshold = too weak to quantify, mostly under pKd 3.1 to 4
Conditions in all cases: plain residues with an end cap or a label only (N-terminal biotin on a linker: ado-ado)
AHNAK1, Q09666 = biological target: AHNAK1, Q09666
AHNAK1, Q09666, sequence (Q09666 4-100): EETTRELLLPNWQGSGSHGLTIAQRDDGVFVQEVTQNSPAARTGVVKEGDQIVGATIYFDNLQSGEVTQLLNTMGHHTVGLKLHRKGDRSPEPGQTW

DFNB31_3, Q9P202 = biological target: T1, DFNB31_3, Q9P202
DLG1_1, Q12959 = biological target: DLG1_1, Q12959
DLG2_2, Q15700 = biological target: DLG2_2, Q15700
DLG2_2, Q15700, sequence (Q15700 189-283): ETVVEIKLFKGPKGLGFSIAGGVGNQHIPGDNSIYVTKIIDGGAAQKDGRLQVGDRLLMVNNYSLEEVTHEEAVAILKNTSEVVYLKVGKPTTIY

DLG3_1, Q92796 = biological target: T2, DLG3_1, Q92796
DLG4_2, P78352 = biological target: DLG4_2, P78352
DLG4_2, P78352, sequence (P78352 155-259): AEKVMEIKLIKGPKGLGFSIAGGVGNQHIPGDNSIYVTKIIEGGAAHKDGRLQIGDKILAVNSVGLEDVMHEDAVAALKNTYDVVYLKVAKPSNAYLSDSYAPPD

GRID2IP_1, A4D2P6 = biological target: GRID2IP_1, A4D2P6
GRID2IP_1, A4D2P6, sequence (A4D2P6 1-87): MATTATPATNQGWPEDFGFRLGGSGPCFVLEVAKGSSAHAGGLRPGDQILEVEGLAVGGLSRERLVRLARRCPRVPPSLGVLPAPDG

GRIP1_4, Q9Y3R0 = biological target: T3, GRIP1_4, Q9Y3R0
GRIP1_7, Q9Y3R0 = biological target: T4, GRIP1_7, Q9Y3R0
HTRA1, Q92743 = biological target: HTRA1, Q92743
HTRA1, Q92743, sequence (Q92743 360-477): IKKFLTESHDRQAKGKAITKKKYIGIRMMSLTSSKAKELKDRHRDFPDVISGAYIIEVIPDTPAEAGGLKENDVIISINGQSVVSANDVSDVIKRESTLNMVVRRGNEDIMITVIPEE

Inadl_1, Q8NI35 = biological target: Inadl_1, Q8NI35
Inadl_1, Q8NI35, sequence (Q8NI35 113-229): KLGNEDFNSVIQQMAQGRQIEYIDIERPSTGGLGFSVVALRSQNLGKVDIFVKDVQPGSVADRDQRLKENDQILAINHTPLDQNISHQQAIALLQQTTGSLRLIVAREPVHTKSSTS

LAP2, Q96RT1 = biological target: LAP2, Q96RT1
LAP2, Q96RT1, sequence (Q96RT1 other isoform, or with tags, fused parts or gaps): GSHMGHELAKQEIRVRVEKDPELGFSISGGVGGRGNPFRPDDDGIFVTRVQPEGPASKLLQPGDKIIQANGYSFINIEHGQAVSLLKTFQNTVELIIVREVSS

LNX2_2, Q8N448 = biological target: T5, LNX2_2, Q8N448
LRRC7, Q96NW7 = biological target: T6, LRRC7, Q96NW7
MAGI2_3, Q86UL8 = biological target: MAGI2_3, Q86UL8
MAGI2_3, Q86UL8, sequence (Q86UL8 600-682): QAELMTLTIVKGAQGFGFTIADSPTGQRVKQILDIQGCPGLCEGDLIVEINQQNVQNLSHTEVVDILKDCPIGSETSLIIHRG

MAGI2_6, Q86UL8 = biological target: MAGI2_6, Q86UL8
MAGI2_6, Q86UL8, sequence (Q86UL8 1141-1229): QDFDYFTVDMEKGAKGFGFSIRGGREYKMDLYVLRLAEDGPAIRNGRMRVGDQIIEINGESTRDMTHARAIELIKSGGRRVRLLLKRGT

MPDZ_10, O75970 = biological target: T7, MPDZ_10, O75970
NHERF4_2, Q86UT5 = biological target: NHERF4_2, Q86UT5
NHERF4_2, Q86UT5, sequence (Q86UT5 220-308): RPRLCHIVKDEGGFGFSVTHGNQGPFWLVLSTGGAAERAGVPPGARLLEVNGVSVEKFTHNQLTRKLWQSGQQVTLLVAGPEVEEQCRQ

NOS1, P29475 = biological target: NOS1, P29475
NOS1, P29475, sequence (P29475 9-101): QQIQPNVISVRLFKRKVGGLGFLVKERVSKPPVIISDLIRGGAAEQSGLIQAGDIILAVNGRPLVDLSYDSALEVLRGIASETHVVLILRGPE

PARD3B_1, Q8TEW8 = biological target: T8, PARD3B_1, Q8TEW8
PCLO, Q9Y6V0 = biological target: T9, PCLO, Q9Y6V0
PDLIM1, O00151 = biological target: PDLIM1, O00151
PDLIM1, O00151, sequence (O00151 1-87): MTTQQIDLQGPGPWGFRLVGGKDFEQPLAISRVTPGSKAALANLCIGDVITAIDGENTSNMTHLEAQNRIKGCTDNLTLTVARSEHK

SCRIB_2, Q14160 = biological target: SCRIB_2, Q14160
SCRIB_2, Q14160, sequence (Q14160 857-960): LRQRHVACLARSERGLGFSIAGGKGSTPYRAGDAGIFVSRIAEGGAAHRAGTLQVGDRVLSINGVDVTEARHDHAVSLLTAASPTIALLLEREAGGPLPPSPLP

SCRIB_3, Q14160 = biological target: SCRIB_3, Q14160
SCRIB_3, Q14160, sequence (Q14160 999-1103): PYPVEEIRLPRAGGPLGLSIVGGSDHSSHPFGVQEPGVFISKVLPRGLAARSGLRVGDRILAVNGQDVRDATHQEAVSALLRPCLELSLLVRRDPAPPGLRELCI

SIPA1L2, Q9P2F8 = biological target: T10, SIPA1L2, Q9P2F8
TIAM2, Q8IVF5 = biological target: T11, TIAM2, Q8IVF5
TJP1_2, Q07157 = biological target: TJP1_2, Q07157
TJP1_2, Q07157, sequence (Q07157 181-274): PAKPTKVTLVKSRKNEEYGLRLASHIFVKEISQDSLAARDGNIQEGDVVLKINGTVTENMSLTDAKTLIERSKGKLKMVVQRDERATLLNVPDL

Row | pKd (AHNAK1, Q09666) | pKd (DFNB31_3, Q9P202) | pKd (DLG1_1, Q12959) | pKd (DLG2_2, Q15700) | pKd (DLG3_1, Q92796) | pKd (DLG4_2, P78352) | pKd (GRID2IP_1, A4D2P6) | pKd (GRIP1_4, Q9Y3R0) | pKd (GRIP1_7, Q9Y3R0) | pKd (HTRA1, Q92743) | pKd (Inadl_1, Q8NI35) | pKd (LAP2, Q96RT1) | pKd (LNX2_2, Q8N448) | pKd (LRRC7, Q96NW7) | pKd (MAGI2_3, Q86UL8) | pKd (MAGI2_6, Q86UL8) | pKd (MPDZ_10, O75970) | pKd (NHERF4_2, Q86UT5) | pKd (NOS1, P29475) | pKd (PARD3B_1, Q8TEW8) | Binder | also measured
1 | below the threshold | 3.72 | below the threshold | below the threshold | below the threshold | below the threshold | below the threshold | below the threshold | below the threshold | below the threshold | below the threshold | below the threshold | below the threshold | below the threshold | below the threshold | below the threshold | below the threshold | below the threshold | below the threshold | below the threshold | RALRASESGI [ADGRE5, P48960] | pKd (PCLO, Q9Y6V0): below the threshold; pKd (PDLIM1, O00151): below the threshold; pKd (SCRIB_2, Q14160): below the threshold; pKd (SCRIB_3, Q14160): below the threshold; pKd (SIPA1L2, Q9P2F8): below the threshold; pKd (TIAM2, Q8IVF5): below the threshold; pKd (TJP1_2, Q07157): below the threshold
2 | below the threshold | 3.89 | 4.79 | 4.87 | 4.18 | 4.95 | below the threshold | below the threshold | below the threshold | 5.07 | below the threshold | below the threshold | 5.56 | below the threshold | below the threshold | 3.86 | 3.76 | below the threshold | 3.98 | 4.26 | PMESGICTIV [TTC24, A2A3L6] | pKd (PCLO, Q9Y6V0): below the threshold; pKd (PDLIM1, O00151): below the threshold; pKd (SCRIB_2, Q14160): below the threshold; pKd (SCRIB_3, Q14160): 4.06; pKd (SIPA1L2, Q9P2F8): below the threshold; pKd (TIAM2, Q8IVF5): below the threshold; pKd (TJP1_2, Q07157): 3.56

Further lines, the binder ahead of its results:

Row | Binder | pKd (AHNAK1, Q09666) | pKd (DFNB31_3, Q9P202) | pKd (DLG1_1, Q12959) | pKd (DLG2_2, Q15700) | pKd (DLG3_1, Q92796) | pKd (DLG4_2, P78352) | pKd (GRID2IP_1, A4D2P6) | pKd (GRIP1_4, Q9Y3R0) | pKd (GRIP1_7, Q9Y3R0) | pKd (HTRA1, Q92743) | pKd (Inadl_1, Q8NI35) | pKd (LAP2, Q96RT1) | pKd (LNX2_2, Q8N448) | pKd (LRRC7, Q96NW7) | pKd (MAGI2_3, Q86UL8) | pKd (MAGI2_6, Q86UL8) | pKd (MPDZ_10, O75970) | pKd (NHERF4_2, Q86UT5) | pKd (NOS1, P29475) | pKd (PARD3B_1, Q8TEW8) | also measured
3 | NVYGTESVKI [GRIA3, P42263] | below the threshold | below the threshold | below the threshold | below the threshold | below the threshold | below the threshold | below the threshold | below the threshold | below the threshold | 3.98 | below the threshold | below the threshold | 3.74 | below the threshold | below the threshold | below the threshold | below the threshold | below the threshold | 3.56 | 4.8 | pKd (PCLO, Q9Y6V0): below the threshold; pKd (PDLIM1, O00151): below the threshold; pKd (SCRIB_2, Q14160): below the threshold; pKd (SCRIB_3, Q14160): below the threshold; pKd (SIPA1L2, Q9P2F8): below the threshold; pKd (TIAM2, Q8IVF5): below the threshold; pKd (TJP1_2, Q07157): 3.59
4 | GCQGETEDVL [PTH2R, P49190] | below the threshold | below the threshold | below the threshold | below the threshold | below the threshold | below the threshold | below the threshold | below the threshold | below the threshold | 4.14 | below the threshold | below the threshold | below the threshold | below the threshold | below the threshold | below the threshold | below the threshold | below the threshold | 3.67 | 4.05 | pKd (PCLO, Q9Y6V0): below the threshold; pKd (PDLIM1, O00151): below the threshold; pKd (SCRIB_2, Q14160): below the threshold; pKd (SCRIB_3, Q14160): 3.92; pKd (SIPA1L2, Q9P2F8): below the threshold; pKd (TIAM2, Q8IVF5): below the threshold; pKd (TJP1_2, Q07157): below the threshold
5 | SRPRPDDLEI [GJA1, P17302] | below the threshold | below the threshold | below the threshold | below the threshold | below the threshold | below the threshold | below the threshold | below the threshold | below the threshold | below the threshold | below the threshold | below the threshold | below the threshold | below the threshold | below the threshold | below the threshold | below the threshold | below the threshold | below the threshold | below the threshold | pKd (PCLO, Q9Y6V0): below the threshold; pKd (PDLIM1, O00151): below the threshold; pKd (SCRIB_2, Q14160): below the threshold; pKd (SCRIB_3, Q14160): below the threshold; pKd (SIPA1L2, Q9P2F8): below the threshold; pKd (TIAM2, Q8IVF5): below the threshold; pKd (TJP1_2, Q07157): 4.53
